Test results published in patent publication US20210380702A1 (Regeneron, published 2021).
Several values for one entry are separate records, joined by “and”; a condition that tells them apart may be missing. Equal values may be shown once.

Assays:
[1] = molecular target: T1, full length human PD-L1 (amino acids 1 to 290 of NP_054862.1) on transfected cells (human, UniProt Q9NZQ7 19-290); experiment: FACS, 100 nM antibody, HEK293/hPD-L1 cells
T1 construct: also called HEK293/hPD-L1; Raji/hPD-L1
Experimental: (§1) The binding of anti-PD-L1 antibodies to a human embryonic kidney cell line (HEK293; ATCC, #CRL-1573) stably transfected with full length human PD-L1 (amino acids 1 to 290 of accession number NP_054862.1) (HEK293/hPD-L1) was determined by FACS.
(§2) For the assay, adherent cells were detached using enzyme-free dissociation buffer and blocked with complete medium. Cells were centrifuged and resuspended at a concentration of 2.8×10\hat{ }6 cells/mL in cold PBS containing 2% FBS. […] Cells were washed with D-PBS containing 2% FBS to remove unbound secondary detection reagents and fluorescence measurements were acquired using a HyperCyte (IntelliCyt, Inc.) flow cytometer. Data was analyzed using HyperCyte software.

[2] = molecular target: T1, full length human PD-L1 (amino acids 1 …); experiment: cell-based or functional assay
[3] = molecular target: T1, full length human PD-L1 (amino acids 1 …); experiment: FACS, 100 nM antibody
Experimental: as §1, §2

[4] = molecular target: T2, recombinant human PD-L1 (amino acids 19-239 of NP_054862.1) expressed with a C-terminal human IgG1 Fc tag (human); experiment: SPR (Biacore 3000): 100 nM hPD-L1-hFc + 500 nM mAb on captured hPD-1-mFc, 25C
T2 construct: also called hPD-L1-hFc
Experimental: Next, inhibition studies for anti-PD-L1 monoclonal antibodies expressed with human Fc were performed on Biacore 3000 instrument. […] The entire experiment was performed at 25° C. in HBST running buffer (0.01 M HEPES pH7.4, 0.15M NaCl, 3 mM EDTA, 0.05% v/v Surfactant P20). The real-time binding responses were monitored during the entire course of the experiment and the binding response at the end of every step was recorded.

[5] = molecular target: T3, recombinant cynomolgus monkey PD-L1 expressed with a C-terminal mouse IgG2a Fc tag (cynomolgus monkey); experiment: SPR (Biacore), mAb captured, 37C
T3 construct: also called MfPD-L1-mFc; monkey PD-L1-mFc

[6] = molecular target: T4, recombinant human PD-L1 (amino acids 19-239 of NP_054862.1) expressed with a C-terminal mouse IgG2a Fc tag (human); experiment: competition ELISA: 0.5 nM hPD-L1-mFc binding to coated hPD-1-hFc
T4 construct: called dimeric; also called hPD-L1-mFc
Experimental: (§3) The ability of monoclonal anti-PD-L1 antibodies to block human PD-L1 from binding to its binding partners, the human PD-1 and the human B7-1 receptors, was measured using two competition sandwich ELISA formats.
(§4) A dimeric human PD-1 protein comprised of a portion of the extracellular domain (amino acids 25-170 of accession number NP_005009.2 with a C93S change) that was expressed with a C-terminal hFc tag (hPD-1-hFc; SEQ ID: 350) and a dimeric human B7-1 protein comprised of a portion of the extracellular domain expressed with C-terminal hFc tag and hexahistidine tags (hB7-1-hFc-6His; R&D Systems, #140-B1) were separately coated at 2 μg/mL on a 96-well microtiter plate in a PBS buffer overnight at 4° C. […] These antibody-protein complexes were then incubated for 1 hour at room temperature (RT). […] The complexes were allowed to bind to the coated plates for 1 hour at RT. […] Samples were developed with a TMB solution (BD Biosciences, #51-2606KC and #51-2607KC) to produce a colorimetric reaction and neutralized with 1M sulfuric acid before measuring absorbance at 450 nm on a Victor X5 plate reader. Data analysis used a sigmoidal dose-response model within Prism™ software.

[7] = molecular target: T4, recombinant human PD-L1 (amino acids …); experiment: competition ELISA: 8 nM hPD-L1-mFc binding to coated hB7-1-hFc-6His
Experimental: as §3, §4

T1 sequence (Q9NZQ7 19-290 limits assumed): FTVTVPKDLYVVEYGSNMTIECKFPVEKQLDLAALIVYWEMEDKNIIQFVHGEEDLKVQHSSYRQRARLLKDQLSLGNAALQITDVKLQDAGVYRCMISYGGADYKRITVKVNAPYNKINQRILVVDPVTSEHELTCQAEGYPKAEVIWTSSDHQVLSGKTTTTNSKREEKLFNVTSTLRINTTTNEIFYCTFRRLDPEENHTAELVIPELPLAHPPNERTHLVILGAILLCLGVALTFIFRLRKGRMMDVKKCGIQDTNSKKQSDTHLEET
T3 sequence (chain, as listed by the source limits assumed): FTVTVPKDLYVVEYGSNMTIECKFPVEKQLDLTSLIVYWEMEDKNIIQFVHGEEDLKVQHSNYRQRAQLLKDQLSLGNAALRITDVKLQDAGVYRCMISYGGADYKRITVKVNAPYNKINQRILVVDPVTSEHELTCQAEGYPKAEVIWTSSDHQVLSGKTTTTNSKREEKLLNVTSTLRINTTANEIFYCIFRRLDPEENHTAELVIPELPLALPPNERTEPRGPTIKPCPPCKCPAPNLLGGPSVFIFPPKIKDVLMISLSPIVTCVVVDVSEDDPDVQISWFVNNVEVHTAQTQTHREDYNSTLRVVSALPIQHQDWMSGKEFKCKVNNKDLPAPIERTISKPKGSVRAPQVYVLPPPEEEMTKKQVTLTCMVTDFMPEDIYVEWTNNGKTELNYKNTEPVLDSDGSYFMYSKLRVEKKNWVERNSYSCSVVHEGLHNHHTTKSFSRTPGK
T2 sequence (chain, as listed by the source limits assumed): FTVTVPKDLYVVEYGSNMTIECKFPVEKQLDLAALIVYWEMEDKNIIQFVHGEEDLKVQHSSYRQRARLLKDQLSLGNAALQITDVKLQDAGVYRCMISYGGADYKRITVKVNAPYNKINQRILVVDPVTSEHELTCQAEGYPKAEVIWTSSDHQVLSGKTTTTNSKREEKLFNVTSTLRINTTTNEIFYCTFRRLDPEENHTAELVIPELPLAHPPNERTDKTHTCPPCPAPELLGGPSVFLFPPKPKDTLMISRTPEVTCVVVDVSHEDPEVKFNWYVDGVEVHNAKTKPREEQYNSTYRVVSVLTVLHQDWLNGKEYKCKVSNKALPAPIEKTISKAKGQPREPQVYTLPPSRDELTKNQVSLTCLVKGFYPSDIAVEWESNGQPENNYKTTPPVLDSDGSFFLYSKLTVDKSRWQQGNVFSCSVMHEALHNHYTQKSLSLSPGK
T4 sequence (chain, as listed by the source limits assumed): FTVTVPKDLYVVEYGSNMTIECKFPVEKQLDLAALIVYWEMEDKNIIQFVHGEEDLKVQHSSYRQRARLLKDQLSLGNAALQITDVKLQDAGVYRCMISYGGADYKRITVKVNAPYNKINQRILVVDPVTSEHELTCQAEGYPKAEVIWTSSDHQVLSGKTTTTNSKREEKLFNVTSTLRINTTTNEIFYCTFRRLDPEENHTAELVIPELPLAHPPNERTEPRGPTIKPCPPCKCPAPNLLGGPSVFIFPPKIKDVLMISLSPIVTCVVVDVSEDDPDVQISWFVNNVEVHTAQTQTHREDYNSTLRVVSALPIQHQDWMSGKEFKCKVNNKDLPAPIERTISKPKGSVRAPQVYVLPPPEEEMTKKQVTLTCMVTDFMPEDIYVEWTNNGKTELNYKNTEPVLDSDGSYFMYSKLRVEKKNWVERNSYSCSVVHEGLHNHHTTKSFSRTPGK

MFI [1] [MFI] | Concentration [M] of Antibody at 125% activation [2] [M] | Emax mean [%] @ 100 nM [2] [%] | Ratio of HEK293/hPD-L1 to HEK293 parental cells [3] | % Blocking [4] [%] | Kd [5] | koff [5] | kon [5] | t1/2 [5] | % maximum blocking [6] [%] | IC50 [6] [pM] | % maximum blocking [7] [%] | IC50 [7] [pM] | Binder
379000 | 9.81e-11 | 163 | 168 | 84 | 24.7 pM | 4.6e-05 s⁻¹ | 1.86e+06 M⁻¹ s⁻¹ | 251 min | 100 | < 250 | 99 | 4400 | H1H9336P (antibody, V domains shown, human IgG1 Fc (H1H prefix)) VH: EVQLVESGGGLVQPGRSLRLSCAASGFTFDDFAMHWVRQAPGKGLEWVSGISWTGGNMDYANSVKGRFTISREDAKNSLYLQMNSLRAADTALYYCVKDIRGIVATGGAFDIWGRGTMVTVSS VL: DIQMTQSPSSLSASVGDRVTISCRASQTISTYLNWFQQKPGKAPKLLIYVVSSLQSGVPSRFSGSGSGTDFTLTISSLQPEDFATYYCQQSYSTPFTFGPGTKVDIK
206000 |  | 86.5 | 140 | -448 | 825 pM | 0.000235 s⁻¹ | 284000 M⁻¹ s⁻¹ | 49 min | 39 | < 250 | -30 |  | H1H9382P2 (antibody, V domains shown, human IgG1 Fc (H1H prefix)) VH: EVQLVESGGGLVQPGGSLRLSCAASGFTVGTNFMNWVRQAPGKGLEWVSAIYSGGTANYADSVKGRFTISRDTSRNTLYLQMNSLRTEDTAVYYCARGGGMDVWGQGTTVTVSS VL: not shown
276000 |  | 89.9 | 125 | -428 | 746 pM | 0.000203 s⁻¹ | 272000 M⁻¹ s⁻¹ | 57 min | 34 | 530 | -13 |  | H1H9354P2 (antibody, V domains shown, human IgG1 Fc (H1H prefix)) VH: EVQLVESGGGLVQPGGSLRLSCEASGFTVGVNHMNWVRQAPGKGLEWVSVIFSSGRTFYGDYVKGRLTIFRQTSQNTVYLQMNSLRSEDTAIYYCARGIGGLDIWGRGTMVTVSS VL: not shown
324000 | 1.86e-11 | 141 | 263 | 91 | 139 pM and 161 pM | 0.000474 s⁻¹ and 0.000465 s⁻¹ | 3.41e+06 M⁻¹ s⁻¹ and 2.9e+06 M⁻¹ s⁻¹ | 24 min and 25 min | 100 | < 250 | 100 | < 4000 | H1H9387P2 (antibody, V domains shown, human IgG1 Fc (H1H prefix)) VH: QVQLVQSGAEVKKPGSSVKVSCKASGGTFNTYVLSWVRQAPGQGLEWMGEIIPILGAANYAQNFQGRVTFTTDESTNTAYMDLSSLRSEDTAVYYCARDRTSGGFDPWGQGTLVTVSS VL: not shown
228000 |  | 89.2 | 121 | -422 | 339 pM | 0.000292 s⁻¹ | 861000 M⁻¹ s⁻¹ | 40 min | 26 | < 250 | -34 |  | H1H9345P2 (antibody, V domains shown, human IgG1 Fc (H1H prefix)) VH: EVQLVESGGGLVQPGGSLRLSCAASGFTISTNYMNWVRQAPGKGLEWVAVIYSSGSTYYIDSVKGRFTISRLTSKNTVYLQMSSLNSEDTAVYYCARGIRGFDIWGQGTMVTVSS VL: not shown
228000 |  | 103 | 97 | -193 | 319 pM | 0.000502 s⁻¹ | 1.57e+06 M⁻¹ s⁻¹ | 23 min | 59 | < 250 | 8 |  | H1H9396P2 (antibody, V domains shown, human IgG1 Fc (H1H prefix)) VH: QVQLVQSGAEVEKPGASVKVSCKASGYIFTHYGISWVRQAPGQGLEWVGWISPYNGYTDYAQKLQGRVTLTTDTSTTTAYMELRNLRSDDTAMYYCSRGRGPYWSFDLWGRGTLVTVSS VL: not shown
